Experiment [1] has as its target T1, human calcitonin receptor (human, UniProt P30988 25-474).
T1 sequence (looked up): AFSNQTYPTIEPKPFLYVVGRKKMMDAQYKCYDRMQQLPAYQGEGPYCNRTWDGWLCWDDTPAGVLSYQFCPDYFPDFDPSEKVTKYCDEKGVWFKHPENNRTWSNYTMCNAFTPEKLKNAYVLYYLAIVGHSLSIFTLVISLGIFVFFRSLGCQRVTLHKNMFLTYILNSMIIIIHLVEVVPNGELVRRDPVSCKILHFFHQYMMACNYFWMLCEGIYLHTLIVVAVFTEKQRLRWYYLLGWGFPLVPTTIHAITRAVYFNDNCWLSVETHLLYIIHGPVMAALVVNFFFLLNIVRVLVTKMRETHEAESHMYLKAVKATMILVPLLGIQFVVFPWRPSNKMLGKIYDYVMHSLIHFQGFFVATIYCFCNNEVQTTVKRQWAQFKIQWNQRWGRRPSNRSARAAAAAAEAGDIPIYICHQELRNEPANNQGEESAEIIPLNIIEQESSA
Description: cell-based or functional assay.

For experiment [2], the target named is T2, human amylin receptor (calcitonin receptor co-expressed with receptor activity modifying protein, RAMP3) (human, UniProt P30988 25-474; O60896 24-148).
T2 sequence (looked up) 1: T1 sequence (looked up)
T2 sequence (looked up) 2: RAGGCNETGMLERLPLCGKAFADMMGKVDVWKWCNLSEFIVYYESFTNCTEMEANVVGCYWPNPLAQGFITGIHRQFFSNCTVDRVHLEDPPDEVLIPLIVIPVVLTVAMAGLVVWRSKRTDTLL
The experiment in a line: cell-based or functional assay.

Numbered stars: 1 amine (or outer) side, 2 acyl side, 3 side chain; on linkers, the order of the positions; unused ones are H or OH. Bridge positions count the residues as written; N and C are the ends. Square brackets hold non-standard residues; d marks the D form. Side chains are listed from the residue outwards. Ends that are not written are not given here. * marks the point of attachment. C20 diacid = O=C(O)CCCCCCCCCCCCCCCCCCC(=O)*; C18 diacid = O=C(O)CCCCCCCCCCCCCCCCC(=O)*; γGlu = O=C(O)[C@H](CCC(=O)[*:2])N[*:1]; Hyp = O=C(O)[C@@H]1C[C@@H](O)CN1; αMeF = C[C@](N)(Cc1ccccc1)C(=O)O; Dab = NCC[C@H](N)C(=O)O; Aib = CC(C)(N)C(=O)O

B1: Peptide 119 (SEQ ID NO: 119) (peptide)
peptide: K([γGlu-γGlu-C20 diacid])CNTATCATQRLANFLVHSPPNFPAILSPTNVGSNTY-NH2
modifications: disulfide 2-7; N-terminus assumed
SMILES: CC[C@H](C)[C@H](NC(=O)[C@H](C)NC(=O)[C@@H]1CCCN1C(=O)[C@H](Cc1ccccc1)NC(=O)[C@H](CC(N)=O)NC(=O)[C@@H]1CCCN1C(=O)[C@@H]1CCCN1C(=O)[C@H](CO)NC(=O)[C@H](Cc1c[nH]cn1)NC(=O)[C@@H](NC(=O)[C@H](CC(C)C)NC(=O)[C@H](Cc1ccccc1)NC(=O)[C@H](CC(N)=O)NC(=O)[C@H](C)NC(=O)[C@H](CC(C)C)NC(=O)[C@H](CCCNC(=N)N)NC(=O)[C@H](CCC(N)=O)NC(=O)[C@@H](NC(=O)[C@H](C)NC(=O)[C@@H]1CSSC[C@H](NC(=O)[C@@H](N)CCCCNC(=O)CC[C@H](NC(=O)CC[C@H](NC(=O)CCCCCCCCCCCCCCCCCCC(=O)O)C(=O)O)C(=O)O)C(=O)N[C@@H](CC(N)=O)C(=O)N[C@@H]([C@@H](C)O)C(=O)N[C@@H](C)C(=O)N[C@@H]([C@@H](C)O)C(=O)N1)[C@@H](C)O)C(C)C)C(=O)N[C@@H](CC(C)C)C(=O)N[C@@H](CO)C(=O)N1CCC[C@H]1C(=O)N[C@H](C(=O)N[C@@H](CC(N)=O)C(=O)N[C@H](C(=O)NCC(=O)N[C@@H](CO)C(=O)N[C@@H](CC(N)=O)C(=O)N[C@H](C(=O)N[C@@H](Cc1ccc(O)cc1)C(N)=O)[C@@H](C)O)C(C)C)[C@@H](C)O
Turning to B1, the “EC50 (cAMP production)” value was 34.7 nM in experiment [1] and 1.46 nM in experiment [2]. Also, in experiment [2], the “Ratio (EC50 hCTR / EC50 hAMYR3)” value came to 24.

B2: Peptide 121 (SEQ ID NO: 121) (peptide)
peptide: K([γGlu-γGlu-C20 diacid])CNTATCATQRLANFLVHSS[Aib]NF[Hyp]AILSPTNVGSNTY-NH2
modifications: disulfide 2-7; not fully specified; printed as K(γE-γE-C20diacid)[CNTATC]ATQRLANFLVHSS(Aib)NF(Hyp)AILSPTNVGSNTY-amide
Take B2: the “EC50 (cAMP production)” value in experiment [1] amounted to 6.07 nM. Further, in experiment [2], the “EC50 (cAMP production)” value amounted to 1.33 nM and the “Ratio (EC50 hCTR / EC50 hAMYR3)” value turned out to be 5.

B3: Peptide 13 (SEQ ID NO: 13) (peptide)
peptide: K([γGlu-γGlu-C18 diacid])CNTATCATQRLANFLVHSSNN[αMeF]GPILPPTNVGSNTY-NH2
modifications: disulfide 2-7
Take B3: in experiment [1], the “EC50 (cAMP production)” value worked out at 2.04 nM. Besides, in experiment [2], the “EC50 (cAMP production)” value turned out to be 0.196 nM and the “Ratio (EC50 hCTR / EC50 hAMYR3)” value turned out to be 10.

B4: Peptide 118 (SEQ ID NO: 118) (peptide)
peptide: K([γGlu-γGlu-C20 diacid])CNIATCATQRLANFLVHSIANFGPILPPTNVGSRTY-NH2
modifications: disulfide 2-7; N-terminus assumed
SMILES: CC[C@H](C)[C@H](NC(=O)[C@H](CO)NC(=O)[C@H](Cc1c[nH]cn1)NC(=O)[C@@H](NC(=O)[C@H](CC(C)C)NC(=O)[C@H](Cc1ccccc1)NC(=O)[C@H](CC(N)=O)NC(=O)[C@H](C)NC(=O)[C@H](CC(C)C)NC(=O)[C@H](CCCNC(=N)N)NC(=O)[C@H](CCC(N)=O)NC(=O)[C@@H](NC(=O)[C@H](C)NC(=O)[C@@H]1CSSC[C@H](NC(=O)[C@@H](N)CCCCNC(=O)CC[C@H](NC(=O)CC[C@H](NC(=O)CCCCCCCCCCCCCCCCCCC(=O)O)C(=O)O)C(=O)O)C(=O)N[C@@H](CC(N)=O)C(=O)N[C@@H]([C@@H](C)CC)C(=O)N[C@@H](C)C(=O)N[C@@H]([C@@H](C)O)C(=O)N1)[C@@H](C)O)C(C)C)C(=O)N[C@@H](C)C(=O)N[C@@H](CC(N)=O)C(=O)N[C@@H](Cc1ccccc1)C(=O)NCC(=O)N1CCC[C@H]1C(=O)N[C@H](C(=O)N[C@@H](CC(C)C)C(=O)N1CCC[C@H]1C(=O)N1CCC[C@H]1C(=O)N[C@H](C(=O)N[C@@H](CC(N)=O)C(=O)N[C@H](C(=O)NCC(=O)N[C@@H](CO)C(=O)N[C@@H](CCCNC(=N)N)C(=O)N[C@H](C(=O)N[C@@H](Cc1ccc(O)cc1)C(N)=O)[C@@H](C)O)C(C)C)[C@@H](C)O)[C@@H](C)CC
As to B4, in experiment [1], the “EC50 (cAMP production)” value is 0.792 nM. Also, in experiment [2], the “EC50 (cAMP production)” value turned out to be 0.417 nM and the “Ratio (EC50 hCTR / EC50 hAMYR3)” value came to 2.

B5: Peptide 122 (SEQ ID NO: 122) (peptide)
peptide: K([γGlu-γGlu-C18 diacid])CNTATCATQRLANFLVHSS[Aib]NFPAILSPT[Dab]VGSNTY-NH2
modifications: disulfide 2-7; N-terminus assumed
SMILES: CC[C@H](C)[C@H](NC(=O)[C@H](C)NC(=O)[C@@H]1CCCN1C(=O)[C@H](Cc1ccccc1)NC(=O)[C@H](CC(N)=O)NC(=O)C(C)(C)NC(=O)[C@H](CO)NC(=O)[C@H](CO)NC(=O)[C@H](Cc1c[nH]cn1)NC(=O)[C@@H](NC(=O)[C@H](CC(C)C)NC(=O)[C@H](Cc1ccccc1)NC(=O)[C@H](CC(N)=O)NC(=O)[C@H](C)NC(=O)[C@H](CC(C)C)NC(=O)[C@H](CCCNC(=N)N)NC(=O)[C@H](CCC(N)=O)NC(=O)[C@@H](NC(=O)[C@H](C)NC(=O)[C@@H]1CSSC[C@H](NC(=O)[C@@H](N)CCCCNC(=O)CC[C@H](NC(=O)CC[C@H](NC(=O)CCCCCCCCCCCCCCCCC(=O)O)C(=O)O)C(=O)O)C(=O)N[C@@H](CC(N)=O)C(=O)N[C@@H]([C@@H](C)O)C(=O)N[C@@H](C)C(=O)N[C@@H]([C@@H](C)O)C(=O)N1)[C@@H](C)O)C(C)C)C(=O)N[C@@H](CC(C)C)C(=O)N[C@@H](CO)C(=O)N1CCC[C@H]1C(=O)N[C@H](C(=O)N[C@@H](CCN)C(=O)N[C@H](C(=O)NCC(=O)N[C@@H](CO)C(=O)N[C@@H](CC(N)=O)C(=O)N[C@H](C(=O)N[C@@H](Cc1ccc(O)cc1)C(N)=O)[C@@H](C)O)C(C)C)[C@@H](C)O
As to B5, the “EC50 (cAMP production)” value in experiment [1] was found to be 6.18 nM. Also, in experiment [2], the “EC50 (cAMP production)” value was determined as 0.655 nM and the “Ratio (EC50 hCTR / EC50 hAMYR3)” value worked out at 9.

B6: Peptide 123 (SEQ ID NO: 123) (peptide)
peptide: K([γGlu-γGlu-C20 diacid])CNTATCATQRLANFLVHSS[Aib]NFPAILSPT[Dab]VGSNTY-NH2
modifications: disulfide 2-7; N-terminus assumed
SMILES: CC[C@H](C)[C@H](NC(=O)[C@H](C)NC(=O)[C@@H]1CCCN1C(=O)[C@H](Cc1ccccc1)NC(=O)[C@H](CC(N)=O)NC(=O)C(C)(C)NC(=O)[C@H](CO)NC(=O)[C@H](CO)NC(=O)[C@H](Cc1c[nH]cn1)NC(=O)[C@@H](NC(=O)[C@H](CC(C)C)NC(=O)[C@H](Cc1ccccc1)NC(=O)[C@H](CC(N)=O)NC(=O)[C@H](C)NC(=O)[C@H](CC(C)C)NC(=O)[C@H](CCCNC(=N)N)NC(=O)[C@H](CCC(N)=O)NC(=O)[C@@H](NC(=O)[C@H](C)NC(=O)[C@@H]1CSSC[C@H](NC(=O)[C@@H](N)CCCCNC(=O)CC[C@H](NC(=O)CC[C@H](NC(=O)CCCCCCCCCCCCCCCCCCC(=O)O)C(=O)O)C(=O)O)C(=O)N[C@@H](CC(N)=O)C(=O)N[C@@H]([C@@H](C)O)C(=O)N[C@@H](C)C(=O)N[C@@H]([C@@H](C)O)C(=O)N1)[C@@H](C)O)C(C)C)C(=O)N[C@@H](CC(C)C)C(=O)N[C@@H](CO)C(=O)N1CCC[C@H]1C(=O)N[C@H](C(=O)N[C@@H](CCN)C(=O)N[C@H](C(=O)NCC(=O)N[C@@H](CO)C(=O)N[C@@H](CC(N)=O)C(=O)N[C@H](C(=O)N[C@@H](Cc1ccc(O)cc1)C(N)=O)[C@@H](C)O)C(C)C)[C@@H](C)O
On to B6, for which the “EC50 (cAMP production)” value in experiment [1] was found to be 4.79 nM. Further, in experiment [2], the “EC50 (cAMP production)” value turned out to be 0.873 nM and the “Ratio (EC50 hCTR / EC50 hAMYR3)” value was 5.

B7: Peptide 120 (SEQ ID NO: 120) (peptide)
peptide: K([γGlu-γGlu-C20 diacid])CNAATCATQRLANWLVHSSPNFPAILSPTNVGSNTY-NH2
modifications: disulfide 2-7; N-terminus assumed
SMILES: CC[C@H](C)[C@H](NC(=O)[C@H](C)NC(=O)[C@@H]1CCCN1C(=O)[C@H](Cc1ccccc1)NC(=O)[C@H](CC(N)=O)NC(=O)[C@@H]1CCCN1C(=O)[C@H](CO)NC(=O)[C@H](CO)NC(=O)[C@H](Cc1c[nH]cn1)NC(=O)[C@@H](NC(=O)[C@H](CC(C)C)NC(=O)[C@H](Cc1c[nH]c2ccccc12)NC(=O)[C@H](CC(N)=O)NC(=O)[C@H](C)NC(=O)[C@H](CC(C)C)NC(=O)[C@H](CCCNC(=N)N)NC(=O)[C@H](CCC(N)=O)NC(=O)[C@@H](NC(=O)[C@H](C)NC(=O)[C@@H]1CSSC[C@H](NC(=O)[C@@H](N)CCCCNC(=O)CC[C@H](NC(=O)CC[C@H](NC(=O)CCCCCCCCCCCCCCCCCCC(=O)O)C(=O)O)C(=O)O)C(=O)N[C@@H](CC(N)=O)C(=O)N[C@@H](C)C(=O)N[C@@H](C)C(=O)N[C@@H]([C@@H](C)O)C(=O)N1)[C@@H](C)O)C(C)C)C(=O)N[C@@H](CC(C)C)C(=O)N[C@@H](CO)C(=O)N1CCC[C@H]1C(=O)N[C@H](C(=O)N[C@@H](CC(N)=O)C(=O)N[C@H](C(=O)NCC(=O)N[C@@H](CO)C(=O)N[C@@H](CC(N)=O)C(=O)N[C@H](C(=O)N[C@@H](Cc1ccc(O)cc1)C(N)=O)[C@@H](C)O)C(C)C)[C@@H](C)O
On to B7, for which the “EC50 (cAMP production)” value in experiment [1] came to 10.7 nM. Further, in experiment [2], the “EC50 (cAMP production)” value was 1.77 nM and the “Ratio (EC50 hCTR / EC50 hAMYR3)” value is 6.

The values above are taken from patent US20220204580A1 (AstraZeneca / MedImmune, published 2022).
